From patent US8273705B2, “Conversion of apoptotic proteins” (The Burnham Institute, priority 2002, dated 2012)

Columns and labels:
[1] = test system: MCF-7 breast cancer cells; experiment: DAPI apoptosis assay in MCF-7 cells; type: cell-based
Experimental: Apoptosis assays—For nuclear morphological change analysis, cells were trypsinized, washed with PBS, fixed with 3.7% paraformaldehyde, and stained with DAPI (4,6-diamidino-2-phenylindole) (50 μg/ml) to visualize the nuclei by UV-microscopy. The percentages of apoptotic cells were determined by counting 300 GFP-positive cells, scoring cells having nuclear fragmentation and/or chromatin condensation.
DAPI staining was used to study the apoptotic effect of TR3/Bcl-2 interaction. 293T cells were transfected with GFP-TR3/ΔDBD alone or together with Bcl-2. After 36 h, nuclei were stained by DAPI and nuclear fragmentation and chromatin condensation were identified. Cells were also stained with anti-Bcl-2 antibody, followed by TRITC-conjugated secondary antibody (Sigma). Bcl-2 and GFP-ΔDBD expression and nuclear morphology were visualized by fluorescence microscopy, and the two images were overlaid. […] But, when Bcl-2 was cotransfected, a significant amount of transfected cells underwent apoptosis. For example, approximately 4% of cells transfected with either TR3/ΔDBD or Bcl-2 were apoptotic, compared to 35% of cell transfected with both. […] Cotransfection of Bcl-2, however, prevented BAX-induced apoptosis in these cells (see FIG. 4). The effect of Bcl-2 on apoptotic potential of TR3/ΔDBD in lung cancer and breast cancer cells was also investigated.

MDA-MB-231 cells = experiment: GFP-TR3/ΔDBD localization and cytochrome c release in MDA-MB-231 cells; type: cell-based; settings: MDA-MB-231, absence of any treatment
Experimental: Subcellular localization assays—Cells were seeded onto cover-slips in 6-well plates overnight, then transiently transfected with GFP-fusion expression plasmids. After 16 hours, cells were washed with PBS and fixed in 4% paraformaldehyde. For mitochondrial staining, cells were then incubated with anti-Hsp60 goat IgG (Santa Cruz, USA), followed by anti-goat IgG conjugated with Cy3 (Sigma). For cyt c staining, cells were incubated with monoclonal anti-cyt c IgG (PharMingen), followed by anti-mouse IgG conjugated with Cy5 (Amersham). Fluorescent images were collected and analyzed using a MRC-1024 MP laser-scanning confocal microscope (Bio-Rad). Subcellular fractionation assays were performed as described (Li, et al. 2000 Science 289:1159-1164). Briefly, cells (1×10^7 cells) suspended in 0.5 ml hypotonic buffer (5 mM Tris-HCl, pH 7.4, 5 mM KCl, 1.5 mM MgCl2, 0.1 mM EGTA, pH 8.0, and 1 mM DTT) were homogenized and cell extracts were centrifuged at 500×g for 5 min. […]
To study whether the TR3 nuclear-to-mitochondrial targeting pathway also occurs in breast cancer cells, a GFP-TR3 fusion construct was transfected into MDA-MB-231 cells. […] Next, GFP-TR3/ΔDBD was transiently transfected into ZR-75-1 or MDA-MB-231 cells, stained for mitochondria (Hsp60) and cytochrome c (Cyt c), and analyzed by confocal microscopy.

[2] = test system: Bcl-2 mutants Y108K, L137A, G145A, R146Q; experiment: Co-IP assay with Bcl-2 hydrophobic groove mutants in HEK293T cells; type: binding
Sequence of Bcl-2 mutants Y108K, L137A, G145A, R146Q (P10415 1-80 limits assumed, stated change not applied): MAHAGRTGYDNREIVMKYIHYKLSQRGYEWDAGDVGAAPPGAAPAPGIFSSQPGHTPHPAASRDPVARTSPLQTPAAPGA
Experimental: TR3/Bcl-2 interaction assays—Reporter gene assays using NurRE-tk-CAT in CV-1 cells, and GST pull-down assay were described previously (Li, et al. 2000 Science 289, 1159-1164). For the mammalian two-hybrid assays, CV-1 cells were co-transfected with pcDNA-Gal4TAD-TR3 or pcDNA-Gal4TAD-TR3/ΔDBD and pcDNA-Gal4DBD-Bcl-2/ΔTM along with a luciferase reporter gene driven by four copies of the Gal4-binding site. The cells were harvested and reporter gene activity was measured. […] Immunoreactive products were detected by chemiluminescence with an enhanced chemiluminescence system (ECL) (Amersham).
Binding of BH3 domain to Bcl-2 is mediated by a hydrophobic cleft formed by the BH1, BH2, and BH3 region of Bcl-2 (Sattler et al. 1997 Science 275:983-986). To determine whether TR3/ΔDBD bound to the Bcl-2 hydrophobic groove, several Bcl-2 mutants with mutations of amino acids, Tyr108, Leu137, or Arg146, critical for the formation of the hydrophobic cleft, were analyzed for their interaction with TR3/ΔDBD. […] The Bcl-2 mutants, Y108KBcl-2, L137ABcl-2 and R146QBcl-2, were analyzed for their interaction with GFP-TR3/ΔDBD in 293T cells by Co-IP assay as described in Example 2. […]

B1: TR3/ΔDBD: TR3 mutant with the DNA binding domain removed; used as GFP fusion (protein)
chain: MPCIQAQYGTPAPSPGPRDHLASDPLTPEFIKPTMDLASPEAAPAAPTALPSFSTFMDGYTGEFDTFLYQLPGTVQPCSSASSSASSTSSSSATSPASASFKFEDFQVYGCYPGPLSGPVDEALSSSGSDYYGSPCSAPSPSTPSFQPPQLSPWDGSFGHFSPSQTYLVLHRLQCARGFGDWIDSILAFSRSLHSLLVDVPAFACLSALVLITDRHGLQEPRRVEELQNRIASCLKEHVAAVAGEPQPASCLSRLLGKLPELRTLCTQGLQRIFYLKLEDLVPPPPIIDKIFMDTLPF
modifications: left off: large carriers; small tags and cut ends
notes: used as GFP fusion
apoptosis ([1]; MCF-7, absence of Bcl-2): did not show any apoptotic effect | apoptosis ([1]; MCF-7, co-expression of Bcl-2): strong induction of apoptosis | GFP-TR3/ΔDBD subcellular localization (MDA-MB-231 cells): targeted to mitochondria | cytochrome c release (MDA-MB-231 cells): caused release of cytochrome c from the mitochondria | binding of Bcl-2 hydrophobic groove mutants to TR3/ΔDBD (Co-IP) [2]: still capable of binding
